Reference: PMC6699074, “Structural and functional characterization of a novel cold-active S-formylglutathione hydrolase (SfSFGH) homolog from Shewanella frigidimarina, a psychrophilic bacterium” (Microbial Cell Factories, 2019)
Positions count from the first letter of the chain named. Numbers in names are those of the source.

B1: SfSFGH (Shewanella frigidimarina NCIMB 400) (protein)
chain: MTIENMSVNKSFGGWHKQYSHQSQTLNCEMRFAIYLPPQASSGKKVPVLYWLSGLTCTDENFMQKAGAQALAAELGIAIVAPDTSPRGENVADDEGYDLGKGAGFYVNATQAPWNRHYRMYDYVVDELPKLIESMFPVSDKRSIAGHSMGGHGALVIALRNADAYQSVSAFSPISNPINCPWGKKALTAYLGRDSATWMEYDASVLMRQATQFVPALVDQGDADNFLVEQLKPEVLEAAAKVKGYPLELNYREGYDHSYYFISSFIENHLRFHAEHLGK
B2: SfSFGH (Shewanella frigidimarina NCIMB 400; W182A) (protein)
chain: B1 chain with W182A

What was measured:
[1] = biological target: S-formylglutathione hydrolase (SfSFGH) from Shewanella frigidimarina (Shewanella frigidimarina); assay: AUC; SfSFGH in 150 mM NaCl, 20 mM Tris-HCl pH 8.0, 20 °C, 40,000 rpm, monitored at 280 nm, analysed with SEDFIT
[2] = substrate: CC(=O)Oc1ccc([N+](=O)[O-])cc1; assay: purified protein; assay type: biochemical, Shewanella frigidimarina; conditions: 20 mM Tris-HCl pH 8.0, 120 mM NaCl, room temperature
[3] = substrate: CCCC(=O)Oc1ccc([N+](=O)[O-])cc1; assay: purified protein; assay type: biochemical, Shewanella frigidimarina; conditions: 20 mM Tris-HCl pH 8.0, 120 mM NaCl, room temperature
[4] = substrate: CCCCCCCC(=O)Oc1ccc([N+](=O)[O-])cc1; assay: purified protein; assay type: biochemical, Shewanella frigidimarina; conditions: 20 mM Tris-HCl pH 8.0, 120 mM NaCl, room temperature

Molecule	stoichiometry N [1]	Km [2]	kcat [2]	Vmax [2]	kcat/Km [2]	Km [3]	Vmax [3]	kcat [3]	kcat/Km [3]	Km [4]	Vmax [4]	kcat [4]	kcat/Km [4]
S-formylglutathione hydrolase (SfSFGH) from Shewanella frigidimarina (enzyme)	2	–	–	–	–	–	–	–	–	–	–	–	–
B1	–	515 (± 42.8) µM	0.310 (± 0.0258) s^-1	–	–	–	–	–	–	–	–	–	–
B2	–	1.393 ± 0.136 mM	1.85 ± 0.092 s⁻¹	323 µM/min	1300 M⁻¹ s⁻¹	303 ± 49 µM	51.7 µM/min	8 ± 0.326 s⁻¹	26400 M⁻¹ s⁻¹	495 ± 85 µM	28.6 µM/min	0.144 ± 0.007 s⁻¹	300 M⁻¹ s⁻¹
